Laboratory results taken from PMC2275136.

Molecular target: p53 (purified recombinant) (UniProt P04637 1-393)
Assay: EMSA

Sequence of p53 (purified recombinant) (P04637 whole entry): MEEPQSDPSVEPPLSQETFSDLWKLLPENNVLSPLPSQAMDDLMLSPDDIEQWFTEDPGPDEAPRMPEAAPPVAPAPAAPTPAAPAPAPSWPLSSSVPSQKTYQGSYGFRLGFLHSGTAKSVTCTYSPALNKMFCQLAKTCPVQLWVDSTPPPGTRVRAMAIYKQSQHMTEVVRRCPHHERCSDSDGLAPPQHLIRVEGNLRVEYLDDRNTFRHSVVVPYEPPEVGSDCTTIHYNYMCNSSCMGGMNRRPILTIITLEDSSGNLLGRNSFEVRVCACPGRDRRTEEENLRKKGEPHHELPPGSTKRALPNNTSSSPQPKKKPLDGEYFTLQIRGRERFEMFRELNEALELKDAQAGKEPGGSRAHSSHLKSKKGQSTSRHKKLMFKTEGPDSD

B1: p21 promoter p53 consensus duplex (dsDNA)
DNA 1: TTGAACATGTCCCAACATGTTGA
DNA 2: TCAACATGTTGGGACATGTTCAA
B1: binds.
